B1: TPR t1 (parent)
chain: GACCAAUCUGCCCUCAGAGCUCGAGAACAUCUUCGGAUGCAGAGGAGGCAGGCUUCGGUGGCGCGAUAGCGCCAACGUCCUCAACCUCCAAUGCAUCCCACCACAUGAUGAUGCCUGAAGAGCCUUGGUUUUUUG

Variants of B1 are the subject of the series. Description: polymerase ribozyme fitness, log enrichment relative to wild type (log ratio); higher = more active; in vitro selection for triplet polymerase activity. The essentials: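 Each subunit of a heterodimeric triplet polymerase ribozyme was mutagenized into a library by PCR, transcribed, and subjected to one round of in vitro selection, run in triplicate. Libraries were annealed with a biotinylated primer, the partner subunit and triplets, incubated frozen at −7 °C, and extended constructs were gel-excised, captured on streptavidin beads and recovered by RT-PCR. Input and output libraries were sequenced on Illumina, keeping genotypes with ≥10 input reads and ≥1 read per output. Fitness is log base 2 of genotype enrichment divided by wild-type enrichment, from inverse-variance-weighted replicate averages.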
For C8G G93A A111C, the “polymerase ribozyme fitness (log ratio)” value was 0.513.
Under C8U G93C G120A stands 1.29; under C8U G10A C124A, 2.42; under C8U A46G C56G, -0.511.
Consider C8U A29G C94A U116G, for which the “polymerase ribozyme fitness (log ratio)” value is -2.84.
The result for C8U C28A C72A A83C G110A reads 1.02; that for C8U C12A G45A C56A, 0.0537; that for C8U U38C C115A, 0.431.
The result for C8U C11G C13U C20A G69C C82A A83C C98U U112G reads -4.19.
Under C8U A37U C86A stands -0.897.
With C8U C22A G63U U81C A105G, the “polymerase ribozyme fitness (log ratio)” value is -7.76.
C8U A18U U116C: the “polymerase ribozyme fitness (log ratio)” value was -2.04.
Take C8U U9G C12A G58A: the “polymerase ribozyme fitness (log ratio)” value turned out to be 0.43.
With C8U A105C, the “polymerase ribozyme fitness (log ratio)” value was -2.01.
Under C8U G44A G60U A121C G122U stands -1.02.
Under C8U G77A A84C A91C C98U stands -2.47; under U9A C12A C13A A18G A100U, -6.25.
In the case of C8U A16C C64U U112C U132A, the “polymerase ribozyme fitness (log ratio)” value was found to be 1.19.
As for U9A A43U C76A C85G G120A U130C, the “polymerase ribozyme fitness (log ratio)” value was -1.48.
The result for C8U G44C G63A reads -0.547; that for C8U A100U, -0.0529; that for C8U A100C, -0.899.
The result for C8U A41G C64G reads -6.15.
In the case of C8U G77A, the “polymerase ribozyme fitness (log ratio)” value amounted to 0.143.
For the variant C8U G128A, the “polymerase ribozyme fitness (log ratio)” value was -1.25.
Turning to C8U C53A G117A U130G, the “polymerase ribozyme fitness (log ratio)” value is -0.499.
Consider C8U C12A C40A G61U A66G, for which the “polymerase ribozyme fitness (log ratio)” value is -1.69.
The result for U9A A16G C28U U54G C89G C123G U131G reads -3.93; that for C8U U14A G36A C72U, -2.09.
Consider C8U C15U G57U C82U U112A A118G, for which the “polymerase ribozyme fitness (log ratio)” value turned out to be 0.233.
The result for C8U U9C G52U U55C reads -0.0264.
Take C8U U59A G60C G117U U131C: the “polymerase ribozyme fitness (log ratio)” value was -0.987.
The result for C8U C85A A91U reads -1.64.
Under C8U C73U stands 1.07; under U9A A46C A50C G61U C82G, -1.26; under U9A A105C G122A, -1.54.
C8U A43U G58A C79U G113C A118G: the “polymerase ribozyme fitness (log ratio)” value was -3.06.
The result for C8U G19A A46U C73A G110U reads -5.19; that for C8G G71U C82U C86U, -1.12; that for C8U C72A A100C U132C, -0.83.
The result for C8U G10U A27U U59C reads -3.06; that for U9A A119G, 0.948.
As to C8U G47A, the “polymerase ribozyme fitness (log ratio)” value was -0.477.
Under C8U C22G C64U U112A U125A U130C stands -2.33.
Take C8U C72U: the “polymerase ribozyme fitness (log ratio)” value stood at 0.252.
C8U C11G G48C C56U C64U C89U G117U: the “polymerase ribozyme fitness (log ratio)” value is -5.48.
Under C8U C13U A46C U59A G71U C79G A83G U109G U132A stands -7.26; under C8U C11G C70U G93A, 0.0777.
Turning to C8U U54A, the “polymerase ribozyme fitness (log ratio)” value was 0.528.
Under C8U C94U stands 0.9.
Under C8U C15G A16U C70U A118C G120A C124U stands -2.69.
For C8U G39C G63A U92G, the “polymerase ribozyme fitness (log ratio)” value is -3.5.
The result for C8G U9G G10U reads -0.244; that for C8U A118G, -0.114; that for C8U G52C U78C G110C, -5.87.
The result for C8U A37G G61U U130A reads -0.107.
With C8U C40G G42U C49A U130A, the “polymerase ribozyme fitness (log ratio)” value is -2.72.
For the variant C8U G10A A95C U130G, the “polymerase ribozyme fitness (log ratio)” value was -1.3.
The result for U9A A26C C40U U87C U125G reads -5.19.
Take C8G U33G C72G C80U A103U G110C A121C U129C: the “polymerase ribozyme fitness (log ratio)” value is -7.86.
Under C8U C13G C53G C72G U87A U133C stands -2.29; under C8U G52U G61C C73G U87C U130A, -2.65; under C8G U9C A16G A24U C28U U92C U96A C99A A111U G120C, -6.18.
Under C8U C62G U106G U112A stands -2.63; under C8G G128C, -0.73.
Under U9A A37U U81G stands -2.86; under C8U A16U G47A C56A C101A C124U, -1.44.
For C8G U96C, the “polymerase ribozyme fitness (log ratio)” value is 0.587.
Under C8U A37U C70A U112C stands 0.338.
With C8U C70G U125A U130G, the “polymerase ribozyme fitness (log ratio)” value was -3.05.
The result for C8U G71A C98U G117U U130C reads -4.47; that for C8G U14A G57A C97U A103C, -6.07; that for C8U G45A G52C C72A C123G, 1.37.
Take C8G U78C G93A C123A: the “polymerase ribozyme fitness (log ratio)” value came out at 1.83.
C8U C64U C72A U109A: the “polymerase ribozyme fitness (log ratio)” value was -4.83.
On to C8U U81A A84G, for which the “polymerase ribozyme fitness (log ratio)” value was -0.331.
The result for C8U U38G C72A U92A C115G reads -5.69; that for C8U A18C G48C A95G, -2.07.
For the variant C8U C13G A26C A74C, the “polymerase ribozyme fitness (log ratio)” value is -6.04.
The result for C8U G45A C72G reads -0.658; that for U9A C12U, -0.242; that for C8G G69A C88A, -2.65.
For the variant C8U C11A C124U, the “polymerase ribozyme fitness (log ratio)” value amounted to 1.17.

Values taken from the RNAGym collection of RNA variant scans (doi:10.1073/pnas.2313332121).
